From PMC6123492, “Structural and biochemical insights into small RNA 3′ end trimming by Arabidopsis SDN1” come the findings set out here.

Series [1] deals with T1, SDN1 TEV (Arabidopsis thaliana, UniProt A3KPE8 2-300+=ENLYFQS+301-409, internal_change).
T1 sequence: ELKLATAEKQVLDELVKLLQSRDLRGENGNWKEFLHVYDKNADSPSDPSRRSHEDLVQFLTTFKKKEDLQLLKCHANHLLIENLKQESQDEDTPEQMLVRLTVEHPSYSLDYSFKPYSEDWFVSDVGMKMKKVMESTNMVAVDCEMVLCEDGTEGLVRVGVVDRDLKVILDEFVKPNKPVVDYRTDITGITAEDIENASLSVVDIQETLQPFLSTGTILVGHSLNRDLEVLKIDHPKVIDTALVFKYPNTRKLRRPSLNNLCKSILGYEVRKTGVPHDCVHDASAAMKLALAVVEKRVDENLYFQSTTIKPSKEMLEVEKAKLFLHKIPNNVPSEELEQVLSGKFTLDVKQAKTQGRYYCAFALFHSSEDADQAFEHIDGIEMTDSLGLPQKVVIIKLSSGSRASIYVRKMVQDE
Briefly: UV crosslinking + TEV mapping; RNA on RRM fragment; EMSA: 50 mM Tris pH 8.0, 100 mM NaCl, 1 mM DTT, no Mg2+, 2 nM RNA, on ice 30 min, 8% native PAGE in 0.5x TBE; NMR: 50 mM Na2HPO4 pH 7.4, 100 mM NaCl, 10% D2O. The following applies: protein: recombinant; tags: His-SUMO tag removed; label: 5' 32P on target strand; unpaired miR166 3' end (T6-type); target 3' overhang 4 nt.

Series [2] addresses T2, SDN1 F356A (Arabidopsis thaliana, UniProt A3KPE8 2-409, F356A).
T2 sequence: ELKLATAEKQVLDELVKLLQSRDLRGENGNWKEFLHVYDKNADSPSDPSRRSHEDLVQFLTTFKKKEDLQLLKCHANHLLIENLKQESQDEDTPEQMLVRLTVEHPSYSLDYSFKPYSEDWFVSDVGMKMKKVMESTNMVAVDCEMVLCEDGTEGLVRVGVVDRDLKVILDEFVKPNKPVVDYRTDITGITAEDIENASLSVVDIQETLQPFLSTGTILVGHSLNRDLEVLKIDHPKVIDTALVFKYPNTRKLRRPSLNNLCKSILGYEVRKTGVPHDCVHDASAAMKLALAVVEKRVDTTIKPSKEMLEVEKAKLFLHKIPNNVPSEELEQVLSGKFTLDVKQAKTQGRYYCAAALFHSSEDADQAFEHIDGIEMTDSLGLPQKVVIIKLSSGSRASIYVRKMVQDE
Briefly: EMSA; no Mg2+; not impaired; EMSA: 50 mM Tris pH 8.0, 100 mM NaCl, 1 mM DTT, no Mg2+, 2 nM RNA, on ice 30 min, 8% native PAGE in 0.5x TBE; NMR: 50 mM Na2HPO4 pH 7.4, 100 mM NaCl, 10% D2O. The following applies: protein: recombinant; tags: His-SUMO tag removed; label: 5' 32P; single strand. (Mobility shift assays separate free from complexed probe on a gel.)

The target in series [3] is T3, SDN1 S22A (Arabidopsis thaliana, UniProt A3KPE8 2-409, S22A).
T3 sequence: T2 sequence with S21A, A355F
The series is described as follows: EMSA; not impaired; EMSA: 50 mM Tris pH 8.0, 100 mM NaCl, 1 mM DTT, no Mg2+, 2 nM RNA, on ice 30 min, 8% native PAGE in 0.5x TBE; NMR: 50 mM Na2HPO4 pH 7.4, 100 mM NaCl, 10% D2O. The following applies: protein: recombinant; tags: His-SUMO tag removed; label: 5' 32P; single strand.

For series [4], the target named is T4, SDN1 Q21A (Arabidopsis thaliana, UniProt A3KPE8 2-409, Q21A).
T4 sequence: T2 sequence with Q20A, A355F
The description is as above. The settings on record: protein: recombinant; tags: His-SUMO tag removed; label: 5' 32P; single strand.

Series [5] addresses T1, SDN1 TEV. Briefly: UV crosslinking + TEV mapping; RNA on DEDDh (ΔC) fragment; EMSA: 50 mM Tris pH 8.0, 100 mM NaCl, 1 mM DTT, no Mg2+, 2 nM RNA, on ice 30 min, 8% native PAGE in 0.5x TBE; NMR: 50 mM Na2HPO4 pH 7.4, 100 mM NaCl, 10% D2O. The settings on record: protein: recombinant; tags: His-SUMO tag removed; label: 5' 32P on target strand; unpaired miR166 3' end (T6-type); target 3' overhang 4 nt.

Substitutions are numbered along the chain they refer to.

B1: miR166:5'-IUU (dsRNA)
RNA 1: UCGGACCAGGCUUCAUCCCCC
RNA 2: GAUUCCCUUGAAGCUUGGUCCGGAUUA
modifications: 5-iodoU at 3,4 of strand 2
As to B1, the binding result in series [1] is given as “binds”. In the case of UCGGACCAGGCUUCAUCCCCC (ssRNA) [miR166], the binding result in series [2], in series [3] and in series [4] was “binds” each time.

B2: miR166:3'-IUU (dsRNA)
RNA 1: UCGGACCAGGCUUCAUCCCCC
RNA 2: GAUUCCCUUGAAGCUUGGUCCGGAUUA
modifications: 5-iodoU at 25,26 of strand 2
As for B2, in series [5], the binding result is on record as “binds”.
